Tests used:
[1] = biological target: human IL-13 (human) (UniProt P35225); experiment: cell-based or functional assay
[2] = biological target: native (naturally occurring) human IL-13 released from HDLM-2 cells (human) (UniProt P35225); experiment: cell-based or functional assay
Chain of native (naturally occurring) human IL-13 released from HDLM-2 cells (human) (P35225 other isoform, or with tags, fused parts or gaps): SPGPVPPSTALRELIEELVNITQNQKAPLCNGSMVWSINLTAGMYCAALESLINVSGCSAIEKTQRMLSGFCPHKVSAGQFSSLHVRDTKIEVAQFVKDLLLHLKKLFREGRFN

Chain of human IL-13 (human) (P35225 other isoform, or with tags, fused parts or gaps): as above

IC50, TF-1 proliferation assay [1] | IC50, eotaxin release from NHLF [1] | IC50, HDLM-2 cell proliferation assay [2] | Substance
1.02 nM | 0.219 nM | 16.7 nM | B-B13 (antibody)
0.471 nM | 0.623 nM | 10.7 nM | JES10-5A2 (antibody)
